T1: human CD300LB transiently expressed on HEK293 cells (human, UniProt A8K4G0 18-201)
T1 construct: CD300LB expression constructs'; also called huCD300LB HEK293
T1 sequence: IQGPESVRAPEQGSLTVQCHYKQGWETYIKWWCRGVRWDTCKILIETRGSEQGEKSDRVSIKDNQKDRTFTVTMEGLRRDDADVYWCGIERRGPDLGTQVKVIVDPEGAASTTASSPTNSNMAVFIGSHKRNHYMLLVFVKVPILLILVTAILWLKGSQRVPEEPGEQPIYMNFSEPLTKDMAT

T2: murine CD300LB-Fc (mouse)
T2 construct: mouse IgG2a-Fc fusion (R&D Systems); the entry is the whole fusion chain; also called mCD300LB; Mouse CD300LB-Fc
T2 chain: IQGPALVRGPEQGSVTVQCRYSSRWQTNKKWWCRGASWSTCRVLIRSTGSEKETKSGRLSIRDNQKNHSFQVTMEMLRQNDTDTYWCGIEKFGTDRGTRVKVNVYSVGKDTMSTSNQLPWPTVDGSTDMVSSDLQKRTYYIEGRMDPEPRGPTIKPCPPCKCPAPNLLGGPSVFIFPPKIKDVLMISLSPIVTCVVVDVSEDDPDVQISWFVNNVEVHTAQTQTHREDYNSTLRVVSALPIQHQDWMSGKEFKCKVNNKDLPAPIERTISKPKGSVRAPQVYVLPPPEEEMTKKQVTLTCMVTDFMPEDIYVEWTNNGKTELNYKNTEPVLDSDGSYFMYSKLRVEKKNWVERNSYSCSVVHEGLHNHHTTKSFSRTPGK

T3: murine CD300E-Fc (mouse)
T3 construct: mouse IgG2a-Fc fusion (R&D Systems); the entry is the whole fusion chain; also called mCD300E; Mouse CD300E-Fc
T3 chain: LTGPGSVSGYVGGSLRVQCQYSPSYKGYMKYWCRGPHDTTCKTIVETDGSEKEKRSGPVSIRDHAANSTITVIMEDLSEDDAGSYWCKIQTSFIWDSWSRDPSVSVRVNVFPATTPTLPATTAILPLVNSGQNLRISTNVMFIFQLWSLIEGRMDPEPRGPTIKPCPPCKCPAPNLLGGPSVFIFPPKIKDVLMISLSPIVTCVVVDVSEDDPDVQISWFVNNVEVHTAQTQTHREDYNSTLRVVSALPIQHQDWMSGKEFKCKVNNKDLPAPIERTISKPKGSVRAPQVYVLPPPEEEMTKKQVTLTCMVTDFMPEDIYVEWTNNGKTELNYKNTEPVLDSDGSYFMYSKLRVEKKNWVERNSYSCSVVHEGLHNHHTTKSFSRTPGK


What was measured:
[1] = biological target: T1, human CD300LB transiently expressed on …; experiment: flow cytometry, transfected HEK293, 10 ug/mL, isotype subtracted
Protocol: In addition, supernatants or purified antibodies were tested for species crossreactivity by comparing the binding of human, mouse, and cynomolgous monkey CD300LB expressing cell lines. HEK293 were transfected with […] of human, mouse, and cyno CD300LB expression constructs using the Mirus system in 10 cm tissue culture dishes. Cells were then incubated for 24 hours in complete medium. Cells were harvested by incubation in TrypLE Express, then washed with PBS and labeled with 200 nM CFSE, 500 nM VioBlue, or a combination of the two to discriminate between human, mouse, and cyno CD300LB expressing cells. Cells were washed thoroughly with PBS containing 2% fetal bovine serum then resuspended at a total of 240,000 cells per well. Purified antibodies at 10 μg/mL were added and incubated for one hour before the cells were washed again and stained with an APC-labeled anti-human or anti-mouse secondary. Cells were then analyzed using a BD FACSCanto II. Antibodies were analyzed for specific binding to human, mouse, or cyno CD300LB by FlowJo software by gating on live cells, then the APC gMFI calculated for each labeled population minus the gMFI of the isotype control.

murine CD300LB-Fc = biological target: T2, murine CD300LB-Fc; experiment: SPR (Carterra LSA), antibody immobilised, Fc fusion at 300 or 600 nM
Protocol: (§1) Binding of mouse anti-CD300LB IgG1 antibodies of the present disclosure to human and murine CD300 orthologs were evaluated by surface plasmon resonance (SPR) using a Carterra LSA instrument (Carterra, Salt Lake City, UT). […] A HC200M sensor chip (Carterra) was activated using the single channel flow cell with a 7-minute injection of a 1:1:1 mixture of 100 mM MES pH 5.5, 100 mM sulfo-NHS, 400 mM EDC (all reconstituted in MES pH 5.5; 100 μL of each mixed in vial immediately before running assay). After switching to the multi-channel array flow cell, the antibodies were injected over the activated chip in a 96-spot array for 10 minutes. The remaining unconjugated active groups on the chip were then blocked by injecting 1M Ethanolamine pH 8.5 (Carterra) for 7 minutes using the single channel flow cell. After priming with running buffer (HBS-TE, Carterra) with 0.5 mg/ml BSA (Sigma), the immobilized anti-CD300LB antibodies were tested for their ability to bind human and mouse recombinant CD300LB extracellular domains. Human CD300 family members and mouse CD300A were hIgG1-Fc fusions, while mouse CD300LB, mouse CD300C, mouse CD300D, and mouse CD300E were mouse IgG2a-Fc fusions (R&D Systems). Binding was assessed by injecting each analyte over the entire antibody array using the single channel flow cell. CD300 analytes were diluted to 300 nM or 600 nM in running buffer and injected in series without regeneration. Two or three buffer blanks were run between each mouse or human ortholog, respectively. Data were processed and analyzed using NextGenKIT high-throughput kinetics analysis software (Carterra).
Results of anti-CD300LB antibody binding to murine CD300 family members is provided below in Table 8.

murine CD300E-Fc = biological target: T3, murine CD300E-Fc; experiment: SPR (Carterra LSA), antibody immobilised
From the text: (§2) In addition to the screening of antibodies for cross-reactivity by FACS analysis, surface plasmon resonance (SPR) analysis was used to determine the binding of antibodies to recombinant huCD300 and muCD300 family members (orthologs) conjugated to an Fc (human CD300A-Fc SEQ ID NO:144; human CD300LB-Fc SEQ ID NO:145; human CD300C-Fc SEQ ID NO: 146; human CD300D-Fc SEQ ID NO: 147; human CD300E-Fc SEQ ID NO: 148; human CD300F-Fc SEQ ID NO: 149; murine CD300A-Fc SEQ ID NO: 150; murine CD300LB-Fc SEQ ID NO:151; murine CD300C-Fc SEQ ID NO: 152; murine CD300D-Fc SEQ ID NO: 153, and murine CD300E-Fc SEQ ID NO: 154).
as §1

murine CD300A-Fc = biological target: T4, murine CD300A-Fc (mouse); experiment: SPR (Carterra LSA), antibody immobilised
T4 construct: hIgG1-Fc fusion; the entry is the whole fusion chain; also called mCD300A; Mouse CD300A-Fc
T4 sequence (chain, as listed by the source limits assumed): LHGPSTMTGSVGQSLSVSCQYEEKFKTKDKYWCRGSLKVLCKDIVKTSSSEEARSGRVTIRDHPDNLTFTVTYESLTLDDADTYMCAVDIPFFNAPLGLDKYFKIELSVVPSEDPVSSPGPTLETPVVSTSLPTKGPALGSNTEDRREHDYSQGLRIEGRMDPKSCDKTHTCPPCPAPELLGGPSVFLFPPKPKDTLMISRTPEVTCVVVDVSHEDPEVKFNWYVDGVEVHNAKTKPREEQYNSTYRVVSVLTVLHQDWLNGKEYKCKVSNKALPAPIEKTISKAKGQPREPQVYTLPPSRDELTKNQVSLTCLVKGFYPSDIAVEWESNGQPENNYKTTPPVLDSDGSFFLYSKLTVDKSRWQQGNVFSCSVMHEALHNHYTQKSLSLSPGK
From the text: as §2, §1

Binder	gMFI [1] [gMFI]	SPR binding (control subtracted) (murine CD300LB-Fc)	binding result (murine CD300E-Fc)	binding result (murine CD300A-Fc)
anti-CD300LB antibody CD-02 (antibody, V domains shown) VH: QVQLQQPGAELVRPGSSVKLSCQASGYTFTNYWMHWVRQRPIQGLEWIGNIDPSDSETHYNQKFKDRATLTVDKSSSTAYMQLSSLTSEDSAVYYCARSGVYDDEGGDYWGQGTTLTVSS VL: ENVLTQSPAIMSASPGEKVTMTCSASSSVSYIHWYQQKSSTSPKLWIYDTSKLASGVPGRFSGSGSGNSYSLTISSMETEDVATYYCFQGSGYPLTFGAGTKLELK	578			
anti-CD300LB antibody CD-01 (antibody, V domains shown) VH: RVQLQQSGAELVRPGASVTLSCKASGFTFTDFEMHWVKKTPVHGLEWIGAIDPESGNTAYNQKFRGKATLTADKSSSTAYMELRYLTSEDSAVYYCTPLISGADYWGQGTTLTVSS VL: DVVMTQSPLSLPVSLGDQASISCRSSQSLVHSDGNTYLYWYLQKPGQSPKLLIYKVSNRFSGVPDRFSGSGSGTDFTFKISRVGAEDLGVYFCSQSTHVPWTFGGGTKLEII	166			
anti-CD300LB antibody CD-07 (antibody, V domains shown) VH: QVQLVQSGAEVKKPGASVKVSCKASGYTFTNYRMHWVRQAPGQGLEWMGWINPNSGGTIYAQKFQGRVTMTRDTSTSTVYMELSSLRSEDTAVYYCARDLDYWGQGTLVTVSS VL: DIQMTQSPSSLSASVGDRVTITCQASQDISNYLNWYQQKPGKAPKLLIYGASSLQSGVPSRFSGSGSGTDFTLTISSLQPEDFATYYCQQSYSTPWTFGPGTKVEIK	686			
anti-CD300LB antibody CD-06 (antibody, V domains shown) VH: QVQLVQSGAEVKKPGASVKVSCKASGYTFTTYAVHWVRQAPGQGLEWMGIVNPNSGGTNYAQKFQGRVTMTRDTSTSTVYMELSSLRSEDTAVYYCARDIVPMNNFYNYYYGMDVWGQGTTVTVSS VL: DIQMTQSPSSLSASVGDRVTITCRASQSISSYLNWYQQKPGKAPKLLIYATSTLQSGVPSRFSGSGSGTDFTLTISSLQPEDFATYYCQQSYRIPYTFGQGTKVEIK	314			
anti-CD300LB antibody CD-05 (antibody, V domains shown) VH: QVQLVQSGAEVKKPGASVKVSCKASGYTFSRYYINWVRQAPGQGLEWMGWINPNSGGTNYAQKFQGRVTMTRDTSTSTVYMELSSLRSEDTAVYYCTTDQLRFGKTGPYYGMDVWGQGTTVTVSS VL: DIQMTQSPSSLSASVGDRVTITCRASQNIGTYLNWYQQKPGKAPKLLIYAASSLQSGVPSRFSGSGSGTDFTLTISSLQPEDFATYYCQQSYSDTLTFGGGTKVEIK	933			
anti-CD300LB antibody CD-03 (antibody, V domains shown) VH: EVQLQQSGPELVKPGASVKISCKASGYTFTDYYINWVRQSHGKSLECIGDINPNNGGTNYNQKFKGKATLTVDRSSNTAYMEFRSLTFDDSALYYCAAEGAYWGQGTLVTVSA VL: not shown	38.7			

More lines, now with the values ahead:

gMFI [1] [gMFI]	SPR binding (control subtracted) (murine CD300LB-Fc)	binding result (murine CD300E-Fc)	binding result (murine CD300A-Fc)	Binder
	87.7	no binding (tested: 300 nM or 600 nM)	no binding (tested: 300 nM or 600 nM)	anti-CD300LB antibody CD-11 (antibody, V domains shown) VH: QIQLVQSGPEVKKPGETVKISCKASGYTLTDYSMHWVMQTPGTGLKWMAWMNTETGEPTYADDFKGRFAFSLETSAGTAYLQIDNLKNEDTATYFCATYGKSYGMKYWGQGTSVTVSS VL: DIVLTQSPPSLAVSLGQRATISCRATKSVSPYLHWYQQTPGQPPKLLIYLASNLDSGVPARFSGSGSGTDFTLNIHPVEEEDAATYYCQHNKELPPTFGGGTRLEIK
	43.2	no binding (tested: 300 nM or 600 nM)	no binding (tested: 300 nM or 600 nM)	anti-CD300LB antibody CD-12 (antibody, V domains shown) VH: QIQLVQSGPELKKPGETVKISCKASGYTFTDYSMHWVRQAPGKGLKWMAWINTETGEATHADDFKGRFDFSLDTSASTAYLQIKNLKNEDTGIYFCVCYGSSYGMDYWGQGTSVTVSS VL: DIVLTQSPASLPVSLGQRATISCRASKSVRTSGASYMHWYQQKPGQPPKLLIYLASNLKSGVPTRFSGSGSGTDFTLNIHPVEEEDAATYYCQHNREVPPTFGGGTKLEIK
	82.4	no binding (tested: 300 nM or 600 nM)	no binding (tested: 300 nM or 600 nM)	anti-CD300LB antibody CD-13 (antibody, V domains shown) VH: QIQLVQSGPELKKPGETVKISCKASGYTFTDYSMHWVKQAPGKGFKWMAWINTETGAPTHADDFRGRFAFSLETSASTAFLQISNLKTEDTATYFCVTFGKSYGMNYWGQGTSVTVSS VL: DIVLTQSPASLSVSLGQRATISCRASKSVGSSGSSYLHWYQQKPGQPPKLLIYLASNLESGVPARFSGSGSGTEFTLNIHPVEEEDAATYYCQHNAEVPPTFGGGTKLEIK
	50	no binding (tested: 300 nM or 600 nM)	no binding (tested: 300 nM or 600 nM)	anti-CD300LB antibody CD-15 (antibody, V domains shown) VH: QIQLVQSGPELKKPGETVKISCQVSGYTFTDYSMHWLKQAPGKGLKWMAWINTETGESTYTDEFKGRFVFSLETSVRTAYLKINNLKNEDTATYFCGTYGSSYGMAYWGQGTSVTVSS VL: DIVLTQSPASLPVSLGQRATISCRASKSVSTSGSSYLHWYQQKPGQPPKLLIYLASKLESGVPARFRGSGSGTDFTLNIHPVEEEDAATYYCQHNREVPPTFGGGTKLEIK
	29	no binding (tested: 300 nM or 600 nM)	no binding (tested: 300 nM or 600 nM)	anti-CD300LB antibody CD-14 (antibody, V domains shown) VH: QIQLVQSGPELKKPGETVKISCKASGYTFTDYSLHWVKQTPEKNLKWMAWINTETGAPTYADDFKGRFAFSLETSSNTAYLLINNLKNEDTATYFCALTMVNYWGQGTTLTVSS VL: DIVMTQSQKFMSTSVGDRVSVTCKASQNVGIRVAWHQQKPGQSPKTLIYSTSYRYSGVPDRFTGSGSGTEFILTISNVQSEDLAEYFCQQYNSYPYTFGGGTKLEIK

— patent publication US20240254227A1 (Alector, published 2024)
